Values belong to the molecule of their own block, whether it stands above or below them.
Columns and labels:
PIN1 = target: T1, PIN1 (Arabidopsis thaliana, UniProt Q9C6B8); assay: [3H]IAA efflux assay in HEK293F cells; type: cell-based
T1 sequence (Q9C6B8 1-622): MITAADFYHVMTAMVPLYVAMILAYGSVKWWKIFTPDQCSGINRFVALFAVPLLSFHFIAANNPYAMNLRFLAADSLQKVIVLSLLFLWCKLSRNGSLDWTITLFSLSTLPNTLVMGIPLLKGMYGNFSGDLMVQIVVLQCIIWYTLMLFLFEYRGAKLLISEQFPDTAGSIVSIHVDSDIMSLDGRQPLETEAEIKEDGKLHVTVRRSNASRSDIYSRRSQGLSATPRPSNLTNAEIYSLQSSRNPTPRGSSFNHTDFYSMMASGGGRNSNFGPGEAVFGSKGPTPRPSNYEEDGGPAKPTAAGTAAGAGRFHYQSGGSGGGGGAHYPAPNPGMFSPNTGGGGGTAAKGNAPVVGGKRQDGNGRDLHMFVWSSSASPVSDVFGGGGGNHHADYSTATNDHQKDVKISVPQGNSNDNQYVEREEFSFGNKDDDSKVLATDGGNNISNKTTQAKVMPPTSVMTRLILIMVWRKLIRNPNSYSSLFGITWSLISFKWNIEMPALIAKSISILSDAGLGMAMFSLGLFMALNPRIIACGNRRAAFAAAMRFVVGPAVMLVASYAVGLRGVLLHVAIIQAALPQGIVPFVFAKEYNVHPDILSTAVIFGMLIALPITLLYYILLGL
T1 sequence (Q9FG74 1-498 partner): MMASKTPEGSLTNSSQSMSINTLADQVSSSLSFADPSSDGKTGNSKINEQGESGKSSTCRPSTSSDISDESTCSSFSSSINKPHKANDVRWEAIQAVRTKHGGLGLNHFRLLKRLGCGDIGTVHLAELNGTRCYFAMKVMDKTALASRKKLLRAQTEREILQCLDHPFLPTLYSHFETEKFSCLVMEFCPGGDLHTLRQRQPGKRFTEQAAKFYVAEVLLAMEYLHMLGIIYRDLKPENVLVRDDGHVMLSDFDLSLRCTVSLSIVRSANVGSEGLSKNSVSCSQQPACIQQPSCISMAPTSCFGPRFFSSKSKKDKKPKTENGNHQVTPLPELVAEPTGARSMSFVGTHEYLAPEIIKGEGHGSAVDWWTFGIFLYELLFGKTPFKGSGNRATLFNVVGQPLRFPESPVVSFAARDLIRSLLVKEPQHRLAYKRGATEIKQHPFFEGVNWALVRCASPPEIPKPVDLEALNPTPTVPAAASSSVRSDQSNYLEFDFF

cryo-EM structure = target: the molecule itself; assay: cryo-EM structure
[1] = target: Arabidopsis thaliana PIN-FORMED 1 (PIN1) auxin transporter (Arabidopsis thaliana, UniProt Q9C6B8); assay: cryo-EM structure

Molecule: O=C(O)Cc1c[nH]c2ccccc12 [IAA, indole-3-acetic acid]
[3H]IAA efflux assay in HEK293F cells (PIN1): had much lower retention of [^3H]-IAA than cells transfected with the empty vector

B1: Arabidopsis thaliana PIN-FORMED 1 (PIN1) auxin transporter (natural protein)
chain: T1 sequence (Q9C6B8 1-622)
binding result (cryo-EM structure): binds

binding result [1]: binds
B2: synthetic nanobody sybody-19 (VHH)
VHH: QVQLVESGGGLVQAGGSLRLSCAASGFPVDITWMEWYRQAPGKEREWVAAIYSSGQSTWYADSVKGRFTISRDNAKNTVYLQMNSLKPEDTAVYYCRVKVGAWYKGQGTQVTVSA
